Test results reported in patent US20080014204A1.

Molecular target: spike protein of wild-type SARS-CoV strain HKU 39849 (SARS-CoV strain HKU 39849)
Assay: cell-based or functional assay

## CR03-022 (antibody)
  Log (TCID50/ml) with mAb (60 µg/ml CR03-022, FRhK-4 cells) (log TCID50/ml): 4
  NI (neutralization index): 3.3 logs
